Data taken from the supplement of paper PMC10065799, “High-throughput profiling of sequence recognition by tyrosine kinases and SH2 domains using bacterial peptide display” (eLife, 2023).

Key:
EPHB2 = EPHB2 (UniProt P29323); test: phosphorylation enrichment, bacterial display (enrichment ratio); higher = better substrate or ligand; peptides without Tyr show the background
AncSZ = test: as above
Jak2 = Jak2 (UniProt O60674); test: as above
FGFR1 = FGFR1 (UniProt P11362); test: as above
Fer (mouse) = test: as above
FGFR3 = FGFR3 (UniProt P22607); test: as above
FGFR3, sequence (P22607 whole entry, looked up): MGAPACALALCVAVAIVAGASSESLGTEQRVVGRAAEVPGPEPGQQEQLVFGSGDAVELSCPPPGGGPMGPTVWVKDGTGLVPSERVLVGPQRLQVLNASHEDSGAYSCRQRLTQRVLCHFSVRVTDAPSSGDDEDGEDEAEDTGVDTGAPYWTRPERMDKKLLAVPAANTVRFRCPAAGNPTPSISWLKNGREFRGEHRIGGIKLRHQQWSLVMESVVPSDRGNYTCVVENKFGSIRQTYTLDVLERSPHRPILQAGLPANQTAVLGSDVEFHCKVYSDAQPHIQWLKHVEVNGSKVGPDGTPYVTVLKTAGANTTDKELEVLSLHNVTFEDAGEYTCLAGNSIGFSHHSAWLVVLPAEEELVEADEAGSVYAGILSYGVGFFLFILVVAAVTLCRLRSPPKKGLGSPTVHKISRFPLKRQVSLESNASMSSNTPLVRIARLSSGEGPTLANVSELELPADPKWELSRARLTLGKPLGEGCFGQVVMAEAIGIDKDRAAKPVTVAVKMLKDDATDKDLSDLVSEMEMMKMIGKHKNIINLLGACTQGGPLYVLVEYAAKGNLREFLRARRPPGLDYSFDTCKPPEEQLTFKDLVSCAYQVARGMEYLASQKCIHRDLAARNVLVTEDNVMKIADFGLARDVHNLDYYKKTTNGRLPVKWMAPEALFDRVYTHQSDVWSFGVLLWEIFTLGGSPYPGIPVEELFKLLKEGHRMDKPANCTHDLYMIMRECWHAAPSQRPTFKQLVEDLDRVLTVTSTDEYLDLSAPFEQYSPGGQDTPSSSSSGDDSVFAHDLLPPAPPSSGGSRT

EPHB1 = EPHB1 (UniProt P54762); test: as above
EPHB1, sequence (P54762 whole entry, looked up): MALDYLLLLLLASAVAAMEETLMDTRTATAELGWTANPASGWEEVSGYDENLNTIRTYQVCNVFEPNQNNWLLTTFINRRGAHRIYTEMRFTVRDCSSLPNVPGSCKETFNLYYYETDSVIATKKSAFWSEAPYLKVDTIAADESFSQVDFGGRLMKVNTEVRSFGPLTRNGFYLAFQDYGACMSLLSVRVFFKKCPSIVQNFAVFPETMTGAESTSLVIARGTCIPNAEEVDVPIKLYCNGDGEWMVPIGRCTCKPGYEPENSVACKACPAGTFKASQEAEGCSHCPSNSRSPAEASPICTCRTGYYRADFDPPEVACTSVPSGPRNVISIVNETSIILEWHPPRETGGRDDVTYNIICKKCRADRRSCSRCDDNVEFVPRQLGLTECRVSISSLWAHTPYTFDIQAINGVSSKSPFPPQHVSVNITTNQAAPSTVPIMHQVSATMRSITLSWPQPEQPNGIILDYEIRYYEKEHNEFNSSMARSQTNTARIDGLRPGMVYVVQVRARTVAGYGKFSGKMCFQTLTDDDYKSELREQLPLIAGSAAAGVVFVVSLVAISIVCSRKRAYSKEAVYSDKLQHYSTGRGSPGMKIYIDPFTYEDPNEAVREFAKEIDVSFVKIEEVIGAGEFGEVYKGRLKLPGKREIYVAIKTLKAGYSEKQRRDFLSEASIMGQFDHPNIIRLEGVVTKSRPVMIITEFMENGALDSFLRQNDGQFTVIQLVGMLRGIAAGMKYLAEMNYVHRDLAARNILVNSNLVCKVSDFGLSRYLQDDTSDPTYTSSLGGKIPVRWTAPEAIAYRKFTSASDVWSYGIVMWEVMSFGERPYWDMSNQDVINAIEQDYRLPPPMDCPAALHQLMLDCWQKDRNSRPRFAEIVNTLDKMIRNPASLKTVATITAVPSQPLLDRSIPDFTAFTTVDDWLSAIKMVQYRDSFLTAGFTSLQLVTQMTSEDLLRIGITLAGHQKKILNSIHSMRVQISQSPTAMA

Fes = Fes (UniProt P07332); test: as above
Fes, sequence (P07332 whole entry, looked up): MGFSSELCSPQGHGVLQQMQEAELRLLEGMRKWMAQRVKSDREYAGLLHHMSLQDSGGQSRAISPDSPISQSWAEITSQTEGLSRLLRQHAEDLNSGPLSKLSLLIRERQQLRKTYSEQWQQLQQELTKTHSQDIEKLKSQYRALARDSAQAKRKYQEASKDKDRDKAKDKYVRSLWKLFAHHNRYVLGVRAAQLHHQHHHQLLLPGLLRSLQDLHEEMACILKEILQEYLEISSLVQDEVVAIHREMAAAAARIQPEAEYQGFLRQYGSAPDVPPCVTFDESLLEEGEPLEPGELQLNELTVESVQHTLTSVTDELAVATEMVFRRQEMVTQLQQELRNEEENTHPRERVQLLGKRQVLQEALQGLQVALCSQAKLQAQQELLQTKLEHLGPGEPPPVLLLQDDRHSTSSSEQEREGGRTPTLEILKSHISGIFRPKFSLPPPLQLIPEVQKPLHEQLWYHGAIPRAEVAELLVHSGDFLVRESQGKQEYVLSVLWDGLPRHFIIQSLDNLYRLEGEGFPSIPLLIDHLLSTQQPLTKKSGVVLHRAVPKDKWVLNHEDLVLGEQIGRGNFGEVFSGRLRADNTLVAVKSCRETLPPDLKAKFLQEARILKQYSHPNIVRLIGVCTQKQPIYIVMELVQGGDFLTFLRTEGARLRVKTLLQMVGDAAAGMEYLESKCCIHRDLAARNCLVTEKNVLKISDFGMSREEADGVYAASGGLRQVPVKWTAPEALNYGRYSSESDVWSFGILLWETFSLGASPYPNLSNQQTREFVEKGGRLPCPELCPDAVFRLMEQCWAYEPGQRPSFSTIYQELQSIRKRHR

Fyn = Fyn (UniProt P06241); test: as above
Fyn, sequence (P06241 whole entry, looked up): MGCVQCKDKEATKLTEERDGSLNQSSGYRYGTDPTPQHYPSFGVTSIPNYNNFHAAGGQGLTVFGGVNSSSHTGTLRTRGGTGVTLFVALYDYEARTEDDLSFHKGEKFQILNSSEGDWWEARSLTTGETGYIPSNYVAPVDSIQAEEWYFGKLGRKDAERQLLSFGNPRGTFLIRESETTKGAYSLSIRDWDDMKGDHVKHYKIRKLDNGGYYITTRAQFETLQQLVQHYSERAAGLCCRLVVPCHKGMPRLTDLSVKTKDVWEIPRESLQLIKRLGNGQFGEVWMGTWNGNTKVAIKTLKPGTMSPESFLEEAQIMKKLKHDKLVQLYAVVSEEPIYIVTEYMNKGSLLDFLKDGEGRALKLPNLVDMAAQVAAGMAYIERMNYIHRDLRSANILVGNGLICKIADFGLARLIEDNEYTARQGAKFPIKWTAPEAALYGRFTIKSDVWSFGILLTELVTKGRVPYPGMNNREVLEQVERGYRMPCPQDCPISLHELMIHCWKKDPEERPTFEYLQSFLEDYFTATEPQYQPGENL

Hck = Hck (UniProt P08631); test: as above
Hck, sequence (P08631 whole entry, looked up): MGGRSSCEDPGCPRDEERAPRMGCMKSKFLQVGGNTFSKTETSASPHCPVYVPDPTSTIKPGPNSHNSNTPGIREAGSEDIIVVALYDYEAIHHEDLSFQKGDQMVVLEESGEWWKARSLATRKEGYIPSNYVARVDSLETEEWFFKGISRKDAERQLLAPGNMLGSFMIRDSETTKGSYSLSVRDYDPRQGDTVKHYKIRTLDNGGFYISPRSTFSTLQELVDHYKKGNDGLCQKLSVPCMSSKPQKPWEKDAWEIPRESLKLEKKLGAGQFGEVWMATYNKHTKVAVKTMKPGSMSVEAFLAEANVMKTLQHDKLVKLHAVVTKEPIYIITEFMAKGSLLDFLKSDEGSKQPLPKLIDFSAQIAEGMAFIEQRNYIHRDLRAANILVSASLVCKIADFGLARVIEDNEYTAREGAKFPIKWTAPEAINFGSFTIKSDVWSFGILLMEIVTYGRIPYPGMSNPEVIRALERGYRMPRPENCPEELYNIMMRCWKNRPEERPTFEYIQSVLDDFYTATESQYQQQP

c-Abl (mouse) = test: as above
MERTK = MERTK (UniProt Q12866); test: as above
c-Src = test: as above
c-Src SH2 = test: SH2 binding enrichment of the phosphorylated peptide, bacterial display (enrichment ratio); higher = better substrate or ligand; peptides without Tyr show the background
Grb2 SH2 = Grb2 SH2 (UniProt P62993); test: as above
Grb2 SH2, sequence (P62993 whole entry, looked up): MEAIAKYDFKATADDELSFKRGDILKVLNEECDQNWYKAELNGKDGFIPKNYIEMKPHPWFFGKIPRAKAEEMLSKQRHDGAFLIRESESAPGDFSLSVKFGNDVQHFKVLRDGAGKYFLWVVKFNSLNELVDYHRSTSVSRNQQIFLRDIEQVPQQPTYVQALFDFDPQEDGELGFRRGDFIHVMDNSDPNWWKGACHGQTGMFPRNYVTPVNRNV

SHP2-C SH2 = test: as above
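For SH2 binding enrichment of the phosphorylated peptide, bacterial display in this document: peptide library displayed on the E. coli surface as eCPX fusions, selected cells deep-sequenced, score is each peptide's frequency after selection divided by its frequency in the input.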
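For phosphorylation enrichment, bacterial display in this document: 11-residue human phosphosite peptides and single-mutation variants displayed on the E. coli surface, counted by deep sequencing, each peptide's frequency after selection divided by its frequency in the unselected input library; frequency after pTyr selection over input frequency; kinase dosed for 20-30% of maximal phosphorylation in three min.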

Jak2, sequence (O60674 whole entry, looked up): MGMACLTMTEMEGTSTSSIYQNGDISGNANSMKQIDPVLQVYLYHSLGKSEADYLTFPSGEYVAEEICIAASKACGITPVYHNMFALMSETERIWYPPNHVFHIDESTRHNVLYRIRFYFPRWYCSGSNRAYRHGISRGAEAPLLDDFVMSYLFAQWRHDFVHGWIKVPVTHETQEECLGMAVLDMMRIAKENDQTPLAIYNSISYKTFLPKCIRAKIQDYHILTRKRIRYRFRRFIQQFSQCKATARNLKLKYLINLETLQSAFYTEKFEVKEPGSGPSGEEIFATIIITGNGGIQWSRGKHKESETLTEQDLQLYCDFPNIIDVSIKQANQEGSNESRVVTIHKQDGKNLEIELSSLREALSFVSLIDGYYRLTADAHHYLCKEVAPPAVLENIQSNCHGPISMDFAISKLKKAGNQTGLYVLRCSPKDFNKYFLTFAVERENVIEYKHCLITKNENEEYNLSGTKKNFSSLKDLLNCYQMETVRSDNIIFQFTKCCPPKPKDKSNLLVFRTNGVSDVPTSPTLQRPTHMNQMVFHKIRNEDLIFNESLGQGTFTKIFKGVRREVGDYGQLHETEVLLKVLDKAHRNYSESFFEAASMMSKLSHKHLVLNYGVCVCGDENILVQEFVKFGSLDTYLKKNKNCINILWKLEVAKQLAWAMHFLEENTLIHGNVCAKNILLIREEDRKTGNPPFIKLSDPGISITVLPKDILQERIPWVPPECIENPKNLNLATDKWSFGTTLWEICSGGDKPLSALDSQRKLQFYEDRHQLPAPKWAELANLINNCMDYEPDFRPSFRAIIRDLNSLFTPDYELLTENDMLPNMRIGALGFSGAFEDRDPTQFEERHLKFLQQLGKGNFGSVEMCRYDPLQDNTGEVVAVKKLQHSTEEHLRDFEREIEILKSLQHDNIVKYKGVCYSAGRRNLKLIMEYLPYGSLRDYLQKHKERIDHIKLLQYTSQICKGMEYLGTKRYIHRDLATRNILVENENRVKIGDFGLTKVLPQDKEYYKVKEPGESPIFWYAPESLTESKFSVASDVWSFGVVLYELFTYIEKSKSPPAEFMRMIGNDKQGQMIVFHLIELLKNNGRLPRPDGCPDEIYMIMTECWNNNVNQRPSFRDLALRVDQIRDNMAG

## NSNSDYVDILP [SH2D1B_Y127_V130I]
EPHB2
  phosphorylation enrichment: 3.01
AncSZ
  phosphorylation enrichment: 1.85
Jak2
  phosphorylation enrichment: 1.09
FGFR1
  phosphorylation enrichment: 3.99
Fer (mouse)
  phosphorylation enrichment: 0.682
FGFR3
  phosphorylation enrichment: 3.11
EPHB1
  phosphorylation enrichment: 3.31
Fes
  phosphorylation enrichment: 1.22
Fyn
  phosphorylation enrichment: 0.514
Hck
  phosphorylation enrichment: 0.623
c-Abl (mouse)
  phosphorylation enrichment: 1
MERTK
  phosphorylation enrichment: 0.6
c-Src
  phosphorylation enrichment: 0.573
c-Src SH2
  SH2 binding enrichment: 0.571
Grb2 SH2
  SH2 binding enrichment: 0.788
SHP2-C SH2
  SH2 binding enrichment: 0.503

## QKKEEYKMALY [F8_Y1990_R1985Q]
EPHB2
  phosphorylation enrichment: 0.626
AncSZ
  phosphorylation enrichment: 1.72
Jak2
  phosphorylation enrichment: 1.63
FGFR1
  phosphorylation enrichment: 0.527
Fer (mouse)
  phosphorylation enrichment: 0.895
FGFR3
  phosphorylation enrichment: 0.582
EPHB1
  phosphorylation enrichment: 0.984
Fes
  phosphorylation enrichment: 1.41
Fyn
  phosphorylation enrichment: 0.603
Hck
  phosphorylation enrichment: 0.496
c-Abl (mouse)
  phosphorylation enrichment: 0.902
MERTK
  phosphorylation enrichment: 0.693
c-Src
  phosphorylation enrichment: 0.978
c-Src SH2
  SH2 binding enrichment: 0.48
Grb2 SH2
  SH2 binding enrichment: 0.629
SHP2-C SH2
  SH2 binding enrichment: 0.565
